Data reported in paper PMC11224109, “Synthesis and preclinical evaluation of novel ^18F-vancomycin-based tracers for the detection of bacterial infections using positron emission tomography” (European Journal of Nuclear Medicine and Molecular Imaging, 2024).

Columns and labels:
[1] = Summary of tracer stability in vitro and in vivo
Experimental: Stability of the tracers was determined in PBS and human plasma. In a typical experiment, 1 MBq of radioactivity (10–20 µL) was added to 250 µL of PBS or human plasma. Samples were heated to 37 °C on a shaker and sampled at fixed intervals. For samples containing human plasma, protein was precipitated using two volumes of cold MeCN. Precipitated samples were briefly centrifuged to pellet the insoluble fraction and supernatant was used for stability assessment. Supernatant (1 µL) was loaded on a TLC plate and imaged using BAS-IP MS 2025 E plates (Fujifilm, Tokyo, Japan) on an Amersham Typhoon Biomolecular Imager (GE Healthcare Bio-Sciences Corp, Chicago, United States) equipped with a phosphor imaging stage. [^18F]BODIPY-FL-vancomycin has an Rf of 0.68 (petroleum ether/MeOH 3:1), [^18F]FB-vancomycin has an Rf of 0.66 (2 M NaOAc/MeOH 5:1). For [^18F]PQ-VE1-vancomycin, conditions described in [44] were used.

[2] = Biodistribution in vivo and PET in healthy mice; details: in vivo; for tissue uptake at 0.5 h / tissue uptake at 1 h: male, C57BL/6, mouse, 2 MBq, total radioactivity, Biodistribution, healthy male C57BL/6 mice, penile vein injection, gamma counter, mean of n = 3; for tissue uptake at 0.5 h: 30 min; for tissue uptake at 1 h: 60 min
Experimental: All murine experiments were approved by the Animal Care and Use Committee of the University of Groningen under license protocol number 2114768-01-001. In vivo biodistribution was performed in male C57BL/6 mice (age 8 weeks, 25 g). Per tracer, the animals were divided in three groups based on the tracer distribution times (30 min, 60 min, and 90 min). […] Each experimental arm (i.e. time point) consisted of three animals. […] Tracer was administered at t = 0 via penile vein injection (2.0 ± 0.9 MBq in 100 µL 0.9% saline solution, Supplemental Table 2). After tracer administration, the animals were transferred to a Siemens Focus 220 microPET small animal scanner (Siemens, Munich, Germany) and scanned for the designated time, followed by a transmission scan of 10 min for attenuation correction. PET data were normalized and corrected for decay, after which the PET data were reconstructed using OSEM2D-Z1-SC-256. The PET data frames used for reconstruction were: 6 × 10 s, 4 × 30 s, 2 × 60 s, 120 s, 180 s, 4 × 300 s, 3 × 600 s, 1200 s or until the designated scan time was reached, taking into account a 10-min transmission scan following the emission scan. Next, animals were terminated, and organs harvested to assay biodistribution in a calibrated gamma counter (Wizard2, Perkin Elmer, Waltham, United States).

S. aureus = experiment: In vitro tracer binding to S. aureus; parameters: species or system Staphylococcus aureus; details: clinical isolate, culture OD600 about 3.0, 37 °C, sampled at 0, 15 and 30 min, washed twice, gamma counter
Experimental: Single colonies of clinical S. aureus and E. coli isolates were used to inoculate TSB and incubated overnight. From the overnight cultures, fresh cultures were started and grown to an optical density at 600 nm (OD600) of approximately 3.0. Both strains were incubated with tracer (3.5 MBq in 1 mL 0.9% saline) in a water bath at 37 °C. The final tracer concentration was 120 kBq ± 28 (38.6 pg ± 9.1 and 0.5 pg ± 0.1 of [^18F]BODIPY-FL-vancomycin and [^18F]PQ-VE1-vancomycin, respectively) per mL culture. At fixed time intervals (0, 15 and 30 min), aliquots were collected (2.0 mL in a 2 mL Eppendorf tube) and washed twice with sterile PBS (1.0 mL per washing step). In each washing step, the bacteria were pelleted by centrifugation (10.000 rpm, 60 s) and resuspended in fresh PBS. […] Measurements were corrected for background and decay. Results are reported as counts per s (Bq). To correlate bound tracer with the number of bacteria in a sample, the bacterial suspensions (2 ×) were plated and CFUs were counted.

[3] = Distribution coefficient LogD7.4, shake-flask n-octanol/PBS; format: physicochemical; details: shake-flask n-octanol/PBS pH 7.4, 500 µL each, 10 µL tracer in saline, vortexed 30 s, shaken 15 min, gamma counter, mean ± SD
Experimental: The tracer distribution coefficient in n-octanol/PBS pH 7.4 (LogD7.4) was determined using a shake-flask methodology. To an Eppendorf tube containing 500 µL n-octanol and 500 µL PBS, 10 µL tracer solution in saline was added. The vial was vortexed for 30 s and placed on an Eppendorf shaker for 15 min. After incubation, layers were separated by centrifugation (1 min at 10.000 rpm) and a fraction of the n-octanol layer was pipetted off. To minimize contamination of the bottom layer with the n-octanol layer, the bottom PBS layer was collected by puncturing the bottom of the Eppendorf tube with a 22G needle and aspirating a fraction of the PBS layer. Collected fractions were weighted to correct for collected volume and subsequently measured on a calibrated gamma counter and corrected for decay. LogD7.4 was calculated as [drawing 1] .

With CC(C)C[C@H](C(=O)N[C@H]1C(=O)N[C@@H](CC(N)=O)C(=O)N[C@H]2C(=O)N[C@H]3C(=O)N[C@H](C(=O)N[C@H](C(=O)O)c4cc(O)cc(O)c4-c4cc3ccc4O)[C@H](O)c3ccc(c(Cl)c3)Oc3cc2cc(c3O[C@@H]2O[C@H](CO)[C@@H](O)[C@H](O)[C@H]2O[C@H]2C[C@](C)(N)[C@H](O)[C@H](C)O2)Oc2ccc(cc2Cl)[C@H]1O)N(C)C(=O)c1ccc(F)cc1 [[^18F]FB-vancomycin] the Stability [1] was “Rapidly degraded in vitro and in vivo”, the tissue uptake at 0.5 h ([2]; iv, Bladder) was 21.8 %ID/g and the tissue uptake at 1 h ([2]; iv, Bladder) was 18.5 %ID/g. It also gave a tissue uptake at 0.5 h ([2]; iv, Bone) of 0.06 %ID/g, a tissue uptake at 1 h ([2]; iv, Bone) of 0.04 %ID/g and a tissue uptake at 0.5 h ([2]; iv, Brain) of 0.05 %ID/g. The tissue uptake at 1 h ([2]; iv, Brain) was 0.05 %ID/g, the tissue uptake at 0.5 h ([2]; iv, Fat) was 0.54 %ID/g and the tissue uptake at 1 h ([2]; iv, Fat) was 0.26 %ID/g. The tissue uptake at 0.5 h ([2]; iv, Heart) was 0.11 %ID/g, the tissue uptake at 1 h ([2]; iv, Heart) was 0.22 %ID/g and the tissue uptake at 0.5 h ([2]; iv, Kidneys) was 1.01 %ID/g. It also gave a tissue uptake at 1 h ([2]; iv, Kidneys) of 0.45 %ID/g, a tissue uptake at 0.5 h ([2]; iv, Large intestine) of 0.25 %ID/g and a tissue uptake at 1 h ([2]; iv, Large intestine) of 0.37 %ID/g. For the same compound, the tissue uptake at 0.5 h ([2]; iv, Liver) was 0.15 %ID/g, the tissue uptake at 1 h ([2]; iv, Liver) was 0.1 %ID/g and the tissue uptake at 0.5 h ([2]; iv, Lungs) was 0.2 %ID/g. It also gave a tissue uptake at 1 h ([2]; iv, Lungs) of 0.14 %ID/g, a tissue uptake at 0.5 h ([2]; iv, Muscle) of 0.14 %ID/g and a tissue uptake at 1 h ([2]; iv, Muscle) of 0.12 %ID/g. For the same compound, the tissue uptake at 0.5 h ([2]; iv, Plasma) was 0.29 %ID/g, the tissue uptake at 1 h ([2]; iv, Plasma) was 0.15 %ID/g and the tissue uptake at 0.5 h ([2]; iv, Small intestine) was 0.3 %ID/g. For the same compound, the tissue uptake at 1 h ([2]; iv, Small intestine) was 0.19 %ID/g, the tissue uptake at 0.5 h ([2]; iv, Spleen) was 0.14 %ID/g and the tissue uptake at 1 h ([2]; iv, Spleen) was 0.09 %ID/g. For the same compound, the tissue uptake at 0.5 h ([2]; iv, Stomach) was 0.1 %ID/g, the tissue uptake at 1 h ([2]; iv, Stomach) was 0.21 %ID/g and the tissue uptake at 0.5 h ([2]; iv, Whole blood) was 0.2 %ID/g. The tissue uptake at 1 h ([2]; iv, Whole blood) was 0.1 %ID/g, the Accumulation ([2]; mouse) was “No accumulation in tissues, only in urine” and the Clearance ([2]; mouse) was “Rapid renal clearance”. For the same compound, the In vivo stability ([2]; mouse, iv) was “poor in vivo stability”, the “Binding to S. aureus” value (S. aureus) was “no bacterial binding was observed” and the LogD7.4 [3] was -0.96 ± 0.03 (n = 12).
